In the supplement of paper PMC10567573:
± gives the standard deviation.

Assay: protein stability index of a GFP-peptide fusion (GPS, HEK-293T) (PSI 1-6); higher = more stable
[1] = treatment: DMSO, c terminus: a fixed tail appended
[2] = treatment: MLN4924 1 uM, 8 h, c terminus: a fixed tail appended
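Also: 24-mer peptide tiles fused after GFP, lentivirally expressed, FACS-sorted into six equal bins by GFP/DsRed ratio, decoded by Illumina sequencing, PSI is the read-weighted mean bin number.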

Sequence | protein stability index [1] | protein stability index [2] | protein stability index (treatment: DMSO, c terminus: native) | protein stability index (treatment: MLN4924 1 uM, 8 h, c terminus: native)
LASGPGKYMPHLCQDSSGEVSCQC | 3.99 ± 0.12 | 4.1 ± 0.27 |  | 
LASHHNHFSQIVIFMLCTLVLAIP [OR10K2] | 3.06 ± 0.22 | 3.13 ± 0.18 |  | 
LCALPVHVAVEHQLPPASRCVLVF [SOAT2] | 2.71 ± 0.6 | 2.71 ± 0.61 |  | 
LDAEDRPAWNSKLQYILAQIGFSV [SLC6A17] | 2.19 ± 0.53 | 2.32 ± 0.21 |  | 
LDAVQVLSGVSQLLPKSRENYLNR [FCHO1] | 3.13 ± 0.22 | 3.25 ± 0.18 |  | 
LDEPNAESDYTYSSSYEQFNGELP [SRPK2] | 4.78 ± 0.28 | 4.62 ± 0.19 |  | 
LDFSKKILHTAWHPSENIIAVAAT [PPP2R2B] | 2.05 ± 0.2 | 2.3 ± 0.039 |  | 
LDPSFPVEFVRHGDIIRLEHKETS [POMT2] | 5.71 ± 0.17 | 5.59 ± 0.25 |  | 
LDVEAAHSEILKYFQSVTSNRWLM [STX5] | 2.06 ± 0.29 | 1.95 ± 0.055 |  | 
LEEGDELQLAIPRENAQISLDGDV [TNFSF13B] | 5.43 ± 0.083 | 5.29 ± 0.12 |  | 
LEQDLQQVMVSGPNLNETSIVSGG [ARFIP2] | 5.03 ± 0.26 | 4.99 ± 0.12 |  | 
LEWNSLGTWDDAFATFCGGLAANG [LRRC45] | 2.52 ± 0.3 | 2.58 ± 0.31 |  | 
LFDNPKLDKELRAMLREKFPEFCS [INTS3] | 2.03 ± 0.32 | 2.54 ± 0.31 |  | 
LFNLSNFLDKSGSHGYDMSTFIRR [SNAP91] | 2.62 ± 0.62 | 2.25 ± 0.35 |  | 
LFPASPTREAHRESSVPVTPSVPP [FBF1] | 4.88 ± 0.19 | 4.84 ± 0.11 |  | 
LFPNAKKEHVPTWLQNTHVYSWPK [TRAF3IP2] | 2.8 ± 0.33 | 2.81 ± 0.19 |  | 
LFSDPRSTRLTRIHLREDLVQDQD [ZER1] | 4.53 ± 0.24 | 4.55 ± 0.09 |  | 
LFSLMVVNRLTEELGCDEIIDRE [EID1] |  |  | 3 ± 1.1 | 2.37 ± 0.48
LGKILSVELGKQKKKYMPYNHQHK [FADS1] | 2.55 ± 0.12 | 2.69 ± 0.23 |  | 
LGLETLKITDFQLHASTVKRYGLG [CPXM2] | 2.61 ± 0.52 | 2.46 ± 0.12 |  | 
LGLLFERHWHRPVLMAVSVHSERK [SCNN1D] | 2.21 ± 0.23 | 2.33 ± 0.24 |  | 
LGRSLTAVFMWPGKDSRWLPSLVL [SLC29A1] | 2.98 ± 0.22 | 2.83 ± 0.47 |  | 
LGVRRPGGAGKEGVRVNNRFELIN [TCF25] | 3.05 ± 0.39 | 3.12 ± 0.43 |  | 

Sequence | protein stability index [1] | protein stability index [2] | protein stability index (treatment: DMSO, c terminus: native) | protein stability index (treatment: MLN4924 1 uM, 8 h, c terminus: native)
LHAAAAGGNVECIKLLQSSGADFH [ANKRD44] | 3.37 ± 0.091 | 3.46 ± 0.22 |  | 
LHPDRDPGNPSLHSRFVELSEAYR [DNAJC4] | 3.37 ± 0.22 | 3.51 ± 0.19 |  | 
LHSKEIVYRDLKPENILLDRDGHI [PRKX] | 3.7 ± 0.15 | 3.75 ± 0.097 |  | 
LHTANLGDSGFLVVRGGEVVHRSD [PPTC7] | 3.62 ± 0.11 | 3.76 ± 0.14 |  | 
LIQFLEQVHQGIKGMVLDENYNNL [CPN1] | 2.62 ± 0.065 | 3.07 ± 0.61 |  | 
LISGVTLDNCVEVGRIANTYNLTE [KLHL13] | 2.89 ± 0.18 | 2.77 ± 0.15 |  | 
LKALTRNVNRLNESFRDLQLRLLQ [SCARA5] | 2.37 ± 0.38 | 2.13 ± 0.46 |  | 
LKDVKSTLEKCEKVKTMEVTSVSI [TRIM39] | 3.92 ± 0.16 | 3.89 ± 0.17 |  | 
LKNTPRFKRRRVRRRRMETIVFLD [PCMTD2] | 2.9 ± 0.19 | 3.33 ± 0.3 |  | 
LKTADWRVFLFQAPSKEEMLSWIL [PSD2] | 2.16 ± 0.57 | 2.04 ± 0.38 |  | 
LKTSNLPEELRKVFITYSMDTAME [TRAF3IP2] | 2.41 ± 0.28 | 2.43 ± 0.56 |  | 
LKVTGKPDAETLKVMKQPRCGVPD [MMP1] | 4.47 ± 0.3 | 4.49 ± 0.15 |  | 
LLAYLIRNGSERVVTSAREHIYDL [CLINT1] | 2.85 ± 0.33 | 2.41 ± 0.28 |  | 
LLSDVRFVLGKGRGAAAAGGPQRI [BTBD1] | 2.85 ± 0.63 | 3.04 ± 0.27 |  | 
LLTLPRPPLSGALASITETIQVHR [HDAC6] | 3.12 ± 0.13 | 3.22 ± 0.28 |  | 
LLTLRNSAQAPPDSISLHQPCNPP [DMRTC1] | 3.62 ± 0.14 | 3.82 ± 0.15 |  | 
LLYDRGTKFGLFTPGSRIESILMS [CPOX] | 2.45 ± 0.46 | 2.14 ± 0.42 |  | 
LNAYMKSLLSLPVWVLMDEDVRIF [NCF4] | 3.17 ± 0.86 | 2.54 ± 0.46 |  | 
LNDQNLCIPASSSFVYGAVPIGAS [GAN] | 3.07 ± 0.16 | 3.13 ± 0.17 |  | 
LNLEEDRIQIWFQNRRAKLKRSHR [HESX1] | 2.86 ± 0.18 | 3.16 ± 0.36 |  | 
LNVHDLDSEQNGQVTCSILAYLPF [PCDHGA10] | 2.24 ± 0.22 | 2.19 ± 0.41 |  | 
LPEDDGLEQDLQQVMVSGPNLNET [ARFIP2] | 5.32 ± 0.32 | 5.43 ± 0.13 |  | 
LPFRDASFGNCTYNLTILDCLQGI [CDC14A] | 2.44 ± 0.59 | 2.71 ± 0.49 |  | 

Sequence | protein stability index [1] | protein stability index [2] | protein stability index (treatment: DMSO, c terminus: native) | protein stability index (treatment: MLN4924 1 uM, 8 h, c terminus: native)
LPKVLQKYWCVTATRVAPERLFGS [ZBED1] | 2.47 ± 0.65 | 2.2 ± 0.21 |  | 
LPLETARESPSFKLEPMETERSPG [ZNF263] | 5.24 ± 0.13 | 5.36 ± 0.13 |  | 
LPLLESCSVRPDASVSSHRFFGPN [TCF25] | 3.17 ± 0.24 | 3.27 ± 0.26 |  | 
LPNHRAAKRLWKVCVEHHTFFRLL [EPB41L3] | 2.42 ± 0.34 | 2.36 ± 0.13 |  | 
LQAESPPVDPDSQADTVHSNPELD [DNAAF3] | 5.7 ± 0.17 | 5.63 ± 0.27 |  | 
LQANDVFHKQQWFNCIRAAIAPFQ [NET1] | 2.14 ± 0.26 | 2.24 ± 0.28 |  | 
LQAQKEELQSLMHQPKGLEEENAQ [PBXIP1] | 5.64 ± 0.29 | 5.45 ± 0.27 |  | 
LQELKKLKNSNYESIQQTARSIAE [PPTC7] | 3.9 ± 0.51 | 3.76 ± 0.46 |  | 
LQLGDGGGCTVGVAGEGVRRKGEM [TRIM15] | 4.71 ± 0.17 | 3.84 ± 0.45 |  | 
LQMAVLVEKQADTLNVIELNVQKT [STX11] | 2.59 ± 0.22 | 2.67 ± 0.26 |  | 
LQQAQAQFRMAQEEARRNRLMRDM [SMG5] | 3.89 ± 0.22 | 4.11 ± 0.27 |  | 
LRDPLTSLSHTELEAAEVILEHAH [FCHSD1] | 4.29 ± 0.25 | 4.44 ± 0.32 |  | 
LREKLRLREAEIARIRDEEAQRAS [LRRC45] | 4.17 ± 0.56 | 4.65 ± 0.18 |  | 
LRENVPRVIMIVTDGRPQDSVAEV [MATN2] | 3.088 ± 0.005 | 3.09 ± 0.17 |  | 
LRHSNPRADPLVCATGLLGSAPFL [SPNS1] | 2.28 ± 0.31 | 2.75 ± 0.39 |  | 
LRPAKRELRGAEPGRPARLDQLLD [SPSB4] | 4.12 ± 0.2 | 4.03 ± 0.22 |  | 
LRSPNNFLSYYRLTRFLSRVIKCD [CCND1] | 2.24 ± 0.42 | 2.44 ± 0.2 |  | 
LSQRTITVGVYEAAKLLNVDPDNV [GADD45A] | 3.16 ± 0.29 | 3.14 ± 0.19 |  | 
LSRAYDGTTYLPGIVGLNNIKAND [USP39] | 3.45 ± 0.24 | 3.54 ± 0.32 |  | 
LSRKLMQLQHEKAELEQHLEQEQE [CCDC6] | 5.27 ± 0.27 | 5.02 ± 0.2 |  | 
LSRKVAKLVHFLLLKYRAREPVTK [MAGEA6] | 2.7 ± 0.37 | 2.43 ± 0.67 |  | 
LSTPDSQSLRCDLIRYICGVVHPS [INTS3] | 2.29 ± 0.46 | 2.29 ± 0.3 |  | 
LTILPTEIETWVREHCPENRERVV [ZNF449] | 3.23 ± 0.2 | 3.42 ± 0.29 |  | 

Sequence | protein stability index [1] | protein stability index [2] | protein stability index (treatment: DMSO, c terminus: native) | protein stability index (treatment: MLN4924 1 uM, 8 h, c terminus: native)
LTSRIKGDWIGLYRHFLKSPNFDG [DENND6A] | 2.01 ± 0.31 | 2.37 ± 0.35 |  | 
LTVEGFQSWMWRGLTFLLPFLFFG [TMEM120A] | 2.98 ± 0.45 | 2.74 ± 0.035 |  | 
LTYSTRMSQTVQRMLVAASWACAF [OR3A1] | 3.35 ± 0.71 | 3 ± 0.65 |  | 
LVDKETDKRHVEQKIQFKRETASL [PDZK1] | 4.72 ± 0.63 | 4.52 ± 0.92 |  | 
LVEKGVLTTEKQNFLLFDMTTHPL [GOLPH3] | 2.51 ± 0.27 | 2.5 ± 0.3 |  | 
LVNPLDPRNADKIRVKIADLGNAC [SRPK2] | 2.92 ± 0.18 | 2.97 ± 0.22 |  | 
LVSDDPRCRLSLDDRVLSSLVRDT [POP5] | 3.44 ± 0.24 | 3.68 ± 0.12 |  | 
LWQFLLELLTDKSCQSFISWTGDG [ETS1] | 2.96 ± 0.47 | 3.13 ± 0.46 |  | 
LYAVGGHDGSSYLNSVERYDPKTN [KLHL20] | 3.72 ± 0.22 | 3.79 ± 0.23 |  | 
LYFHHYFPAMLFSSMLTGILWDTL [POMT2] | 2.84 ± 0.34 | 3.21 ± 0.23 |  | 
LYGTKGNYTSRVWEYSSSIQNSDN [TRIM29] | 3.04 ± 0.2 | 2.83 ± 0.26 |  | 
LYVRRVFIMDSCDELIPEYLNFIR [HSP90AB1] | 2.37 ± 0.58 | 2.68 ± 0.86 |  | 
MADERKDEAKAPHWTSAPLTEASA [MAP2] | 5.22 ± 0.43 | 5.41 ± 0.19 |  | 
MAMPNGFHEDGPQGPGGDEDDDEE [PSD2] | 5.41 ± 0.3 | 5.47 ± 0.18 |  | 
MDVMPGEGDLPQMEVGSGSRELSL [EID1] | 4.8 ± 0.2 | 5.06 ± 0.17 |  | 
MEIFMEEMREIRRKLRELQLRNCL [BEX3] | 3.28 ± 0.41 | 2.52 ± 0.97 |  | 
MEKMLAGCFLLILGQIVLLPAEAR [MATN2] | 3.46 ± 0.56 | 3.01 ± 0.3 |  | 
MEKYERIRVVGRGAFGIVHLCLRK [NEK8] | 2.09 ± 0.21 | 2.33 ± 0.27 |  | 
MELKVGDFGLAARLEPLEHRRRTI [PLK2] | 3.23 ± 0.16 | 3.43 ± 0.25 |  | 
MEVLPCSRVAHIERTRKPYNNDID [GALNT9] | 2.46 ± 0.26 | 2.44 ± 0.28 |  | 
